T1: Human CTLA4 protein having a His-Tag (human, UniProt P16410 37-162, limits assumed)
T1 construct: Bought recombinant protein; also called hCTLA4-His; hCTLA4; not shown: His tag
T1 sequence (looked up): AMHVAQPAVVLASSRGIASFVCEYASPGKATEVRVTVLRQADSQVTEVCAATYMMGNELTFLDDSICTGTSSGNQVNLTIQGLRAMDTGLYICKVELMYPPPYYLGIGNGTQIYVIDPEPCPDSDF

T2: Human OX40 protein having a His-Tag (human, UniProt P43489 29-216, limits assumed)
T2 construct: Bought recombinant protein; also called hOX40-His; hOX40; not shown: His tag
T2 sequence (looked up): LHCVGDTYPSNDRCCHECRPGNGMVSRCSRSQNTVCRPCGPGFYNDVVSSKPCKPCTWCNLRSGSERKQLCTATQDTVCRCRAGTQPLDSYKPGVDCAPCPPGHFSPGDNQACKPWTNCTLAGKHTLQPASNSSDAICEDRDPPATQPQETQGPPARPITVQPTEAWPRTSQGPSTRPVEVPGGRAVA

T3: human OX40 expressed on transfected cells (human, UniProt P43489 29-277)
T3 construct: whole, on cells; also called hOX40 on HEK293T-hCTLA4-hOX40 cells; on Jurkat-luc-hOX40
T3 sequence (looked up): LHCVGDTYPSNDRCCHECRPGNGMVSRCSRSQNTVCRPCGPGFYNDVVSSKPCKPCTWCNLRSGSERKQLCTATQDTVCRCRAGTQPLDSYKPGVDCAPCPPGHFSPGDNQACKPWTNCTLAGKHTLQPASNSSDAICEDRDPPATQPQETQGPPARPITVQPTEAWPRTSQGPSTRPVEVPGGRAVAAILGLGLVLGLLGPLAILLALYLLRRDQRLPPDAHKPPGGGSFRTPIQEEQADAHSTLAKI

B1: CT-4E12-IgG1 (antibody, V domains shown)
VH: QVQLVESGPGLVKPSETLSLTCAVSGGSISSSSYYWGWIRQPPGKGLEWIGNIYYTGITYYNPSLKSRITISVDTSKNQFSLKLSSVTAADTAVYYCARVGGYSYGYLFDYWGQGTLVTVSS
VL: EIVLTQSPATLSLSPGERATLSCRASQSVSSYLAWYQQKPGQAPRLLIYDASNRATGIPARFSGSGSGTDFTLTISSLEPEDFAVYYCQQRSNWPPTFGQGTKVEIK
notes: Human anti-CTLA4 antibody; IgG1 constant regions
B2: CT-5E3-IgG1 (antibody, V domains shown)
VH: QVQLVESGPGLVKPSETLSLTCTVSGGSISSSSYYWGWIRQPPGKGLEWIGSIYYTGNTYYNPSLKSRVTISVDTSKNQFSLKLSSVTAADTAVYYCARVGFSYGHPFDYWGQGTLVTVSS
VL: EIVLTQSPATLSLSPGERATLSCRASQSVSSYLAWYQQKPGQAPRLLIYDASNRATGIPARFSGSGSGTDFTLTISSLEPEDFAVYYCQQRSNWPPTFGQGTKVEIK
notes: as for B1
B3: CT-5F9-IgG1 (antibody, V domains shown)
VH: QVQLVESGPGLLKPSETLSLTCTVSGGSISSSSSYWGWIRQPPGKGLEWIGSIYYSGITYYNPSLKSRVTISVDTSKNQFSLKVSSVTAADTAVYYCARLNWNQVFDYWGQGTLVTVSS
VL: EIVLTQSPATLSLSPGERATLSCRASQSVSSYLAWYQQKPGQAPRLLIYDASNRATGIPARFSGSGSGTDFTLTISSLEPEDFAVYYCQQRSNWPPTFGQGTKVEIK
notes: as for B1
B4: OX-H7-IgG1 (antibody, V domains shown)
VH: QITLKESGPTLVKPAQTLTLTCTFSGFSLSTSGVGVGWIRQPPGKALEWLALIYWDDDKLYSPSLKSRLTITKDTSKNQVVLAMTNMDPVDTATYYCAHSQLGRDDYWGQGTLVTVSS
VL: EIVLTQSPATLCLSPGERATLSCRASQSVSNYLAWYQQKPGQAPRLLIYAASSRATGIPARFSGSGSGTDFTLTISTLEPEDFAVYYCQQRRDWPPTFGQGTKVEIK
notes: Monoclonal anti-OX40 antibody, IgG1 constant regions; also called 040-H7-IgG1
B5: OX-2C11-IgG1 (antibody, V domains shown)
VH: EVQLVQSGGGLVKPGGSLRLSCAASGFTFSDSYMSWIRQAPGKGLEWISYISSSISYTKYADSVKGRFTISRDNAKNSLYLEMNSLRAEDTAVYYCARDYYDSGNYYYYFDYWGQGTLVTVSS
VL: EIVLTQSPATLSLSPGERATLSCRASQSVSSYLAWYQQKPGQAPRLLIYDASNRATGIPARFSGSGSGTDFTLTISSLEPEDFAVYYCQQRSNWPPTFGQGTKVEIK
notes: Human anti-OX40 antibody; IgG1 constant regions
B6: OX-1F9-IgG1 (antibody, V domains shown)
VH: EVQLVESGGGLVQPGGSLRLSCAASGFTFSNYEMNWVRQAPGKGLEWISYIGSSGSTIYYADSVKGRFTISRDNAKNSLYLQMNSLRAEDTAVYYCAVDYIFDYWGQGTLVTVSS
VL: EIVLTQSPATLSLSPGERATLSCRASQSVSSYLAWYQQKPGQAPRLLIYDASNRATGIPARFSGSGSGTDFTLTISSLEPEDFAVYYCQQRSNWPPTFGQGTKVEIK
notes: Human anti-OX40 antibody from RenLite mice
B7: OX-2F5-IgG1 (antibody, V domains shown)
VH: QVQLVESGPTLVKPTQTLTLTCTFSGFSLSTSGVGVGWIRQSPGKALEWLSLIYWDDDKRYNPSLKSRLTVTKDTSKNQVVLAMTNMDPVDTATYFCAHRAHSSSSSDYWGQGTLVTVSS
VL: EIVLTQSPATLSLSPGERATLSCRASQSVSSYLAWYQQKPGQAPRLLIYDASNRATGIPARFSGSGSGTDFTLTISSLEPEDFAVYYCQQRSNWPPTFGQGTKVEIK
notes: as for B5
B8: OX-2F2-IgG1 (antibody, V domains shown)
VH: QVQLVESGGGLVQPGGSLRLSCAASGFTVSNNYMSWVRQAPGKGLEWVSVIYGGGDTYYADSVKGRFTISRDNSQNTLYLQMTSLRADDTAVYYCARGLTIFGVVPFDPWGQGTLVTVSS
VL: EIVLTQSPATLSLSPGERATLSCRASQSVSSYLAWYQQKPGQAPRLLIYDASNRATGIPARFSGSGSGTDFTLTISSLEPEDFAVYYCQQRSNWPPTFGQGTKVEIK
notes: as for B5
B9: OX-2C11-CT-4E12-IgG1-SI (bispecific antibody, V domains shown)
VH 1: B5 VH
VH 2: B1 VH
VL: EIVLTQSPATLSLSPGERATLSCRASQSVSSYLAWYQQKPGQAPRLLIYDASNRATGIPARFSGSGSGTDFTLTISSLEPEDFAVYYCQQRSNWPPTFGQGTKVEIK
notes: 1+1 knobs-into-holes human IgG1 with common light chain; SI mutations (S239D, I332E, EU) in Fc
B10: OX-2F2-CT-3D2-IgG1-SI (bispecific antibody, V domains shown)
VH 1: B8 VH
VH 2: QVQLVESGPGLVKPSETLSLTCTVSGDSIRSSHYYWGWIRQPPGKGLEWIGSIYFNGITYYSPSLKSRVTISVDTSKNQFSLKLTSVTAADTAVFYCARHNNYYDSSGYWYYFDYWGQGTLVTVSS
VL: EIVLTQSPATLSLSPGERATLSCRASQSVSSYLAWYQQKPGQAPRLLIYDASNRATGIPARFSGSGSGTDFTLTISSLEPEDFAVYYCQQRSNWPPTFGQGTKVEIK
notes: 1+1 knobs-into-holes human IgG1 with common light chain; SI mutations (S239D, I332E, EU)
B11: CT-5E3-OX-2F2-IgG1-SI (bispecific antibody, V domains shown)
VH 1: B2 VH
VH 2: B8 VH
VL: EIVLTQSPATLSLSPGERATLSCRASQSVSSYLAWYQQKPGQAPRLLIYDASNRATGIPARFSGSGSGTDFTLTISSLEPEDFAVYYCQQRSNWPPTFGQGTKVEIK
notes: as for B10
B12: OX-2F5-CT-3D2-IgG1-SI (bispecific antibody, V domains shown)
VH 1: B7 VH
VH 2: B10 VH 2
VL: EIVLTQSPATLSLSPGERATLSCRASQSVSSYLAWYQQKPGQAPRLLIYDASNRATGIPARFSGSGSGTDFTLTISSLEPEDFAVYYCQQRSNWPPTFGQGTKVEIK
notes: as for B10
B13: OX-1F9-CT-3D2-IgG1-SI (bispecific antibody, V domains shown)
VH 1: B6 VH
VH 2: B10 VH 2
VL: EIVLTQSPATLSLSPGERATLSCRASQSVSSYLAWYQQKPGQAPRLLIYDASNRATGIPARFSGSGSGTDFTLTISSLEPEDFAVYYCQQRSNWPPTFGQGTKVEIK
notes: as for B10

target: T1, Human CTLA4 protein having a His-Tag; assay: SPR Biacore 8K, Protein A chip; antibody captured, antigen analyte

Kd [µM]	koff [s⁻¹]	kon [M⁻¹ s⁻¹]	Binder
0.017	0.000422	24800	B1
0.0218	0.000674	30900	B2
0.00748	0.00123	164000	B3

target: T2, Human OX40 protein having a His-Tag; assay: as above

Kd [µM]	koff [s⁻¹]	kon [M⁻¹ s⁻¹]	Binder
0.0138	0.00824	598000	B4
0.00759	0.000412	54400	B5
0.0226	0.00744	330000	B6
0.0456	0.0343	753000	B7
0.02	0.0217	1.09e+06	B8

target: T1, Human CTLA4 protein having a His-Tag; assay: as above; remark: another data set of the same source

Kd [µM]	koff [s⁻¹]	kon [M⁻¹ s⁻¹]	Binder
0.0102	0.00023	22400	B9
0.0142	0.000774	54600	B10
0.0278	0.000909	32700	B11

target: T4, Cynomolgus/Rhesus macaque CTLA-4 Protein, His Tag (Cynomolgus/Rhesus macaque); assay: as above
T4 construct: Bought recombinant protein; also called fasCTLA4-His; FasCTLA4-His

Kd [µM]	koff [s⁻¹]	kon [M⁻¹ s⁻¹]	Binder
0.0112	0.000422	37800	B9
0.00477	0.000612	128000	B10
0.00836	0.00105	126000	B11

target: T2, Human OX40 protein having a His-Tag; assay: as above; remark: another data set of the same source

Kd [µM]	koff [s⁻¹]	kon [M⁻¹ s⁻¹]	Binder
0.0167	0.000626	37500	B9
0.0696	0.00947	136000	B12
0.0228	0.00698	306000	B13
0.0502	0.0136	270000	B11

target: T5, Cynomolgus/Rhesus macaque OX40/TNFRSF4/CD134 Protein, His Tag (Cynomolgus/Rhesus macaque); assay: as above
T5 construct: Bought recombinant protein; also called fasOX40-His; monkey OX40

Kd [µM]	koff [s⁻¹]	kon [M⁻¹ s⁻¹]	Binder
0.037	0.000685	18500	B9
0.0304	0.0257	845000	B12
0.00248	0.000371	150000	B13
0.00491	0.000205	41800	B11

target: T3, human OX40 expressed on transfected …; assay: flow cytometry (MFI, anti-hIgG-Fc-Alexa Fluor 647) on HEK293T-hCTLA4-hOX40 cells co-expressing human CTLA4 and human OX40

EC50 (read off the curve) [mg/L]	Binder
~5	B4

From patent US20250115668A1 (BIOCYTOGEN PHARMACEUTICALS BEIJING, published 2025)
